According to patent publication US20120324602A1:
One block for each binder: values may come before it.

Assays:
[1] = molecular target: T1, ATASE (Gln Phosphoribosyl Pyrophospate Amidotransferase 1) (Arabidopsis thaliana); test: TAP-MS, N-terminal GS tag
T1 sequence (Q9SI61 59-566, looked up): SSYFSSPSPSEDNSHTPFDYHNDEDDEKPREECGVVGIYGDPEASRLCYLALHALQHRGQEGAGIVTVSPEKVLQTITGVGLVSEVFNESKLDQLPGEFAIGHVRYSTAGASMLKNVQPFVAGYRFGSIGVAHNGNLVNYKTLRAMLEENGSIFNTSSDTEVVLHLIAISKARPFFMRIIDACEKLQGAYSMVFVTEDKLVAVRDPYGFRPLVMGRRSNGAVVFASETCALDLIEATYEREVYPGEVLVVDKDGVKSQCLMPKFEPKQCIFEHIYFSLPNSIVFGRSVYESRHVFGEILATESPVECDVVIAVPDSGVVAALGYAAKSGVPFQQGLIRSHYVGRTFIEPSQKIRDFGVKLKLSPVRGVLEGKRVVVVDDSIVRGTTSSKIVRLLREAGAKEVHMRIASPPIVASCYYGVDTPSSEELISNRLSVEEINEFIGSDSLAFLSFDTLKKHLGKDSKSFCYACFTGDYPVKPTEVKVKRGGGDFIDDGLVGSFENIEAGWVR

[2] = molecular target: G2484-1, agenet domain-containing protein (Arabidopsis thaliana); test: TAP-MS, N-terminal GS tag
[3] = molecular target: T2, GAD (Glutamate decarboxylase); calmodulin binding (Arabidopsis thaliana); test: TAP-MS, N-terminal GS tag
T2 sequence (Q42521 1-502, looked up): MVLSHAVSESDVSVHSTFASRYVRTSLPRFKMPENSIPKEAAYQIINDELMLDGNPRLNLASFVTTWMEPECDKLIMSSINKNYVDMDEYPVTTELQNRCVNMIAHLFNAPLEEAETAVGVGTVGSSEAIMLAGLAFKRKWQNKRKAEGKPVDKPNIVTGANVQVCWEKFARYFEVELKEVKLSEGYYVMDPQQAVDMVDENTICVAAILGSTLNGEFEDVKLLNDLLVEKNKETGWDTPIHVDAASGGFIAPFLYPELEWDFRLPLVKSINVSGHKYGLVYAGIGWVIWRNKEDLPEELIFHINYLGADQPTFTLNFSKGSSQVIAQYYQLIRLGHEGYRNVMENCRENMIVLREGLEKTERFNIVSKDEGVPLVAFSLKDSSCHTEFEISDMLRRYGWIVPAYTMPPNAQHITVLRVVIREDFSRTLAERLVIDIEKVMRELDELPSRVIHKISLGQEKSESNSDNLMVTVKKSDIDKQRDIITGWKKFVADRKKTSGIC

[4] = molecular target: PTAC17 (PLASTID …ONALLY ACTIVE17) (Arabidopsis thaliana); test: TAP-MS, N-terminal GS tag
[5] = molecular target: SNF2 protein (BRM) (Arabidopsis thaliana); test: TAP-MS, N-terminal GS tag
[6] = molecular target: T3, actin-related protein 7 (ARP7) (Arabidopsis thaliana); test: TAP-MS, N-terminal GS tag
T3 sequence (Q8L4Y5 1-363, looked up): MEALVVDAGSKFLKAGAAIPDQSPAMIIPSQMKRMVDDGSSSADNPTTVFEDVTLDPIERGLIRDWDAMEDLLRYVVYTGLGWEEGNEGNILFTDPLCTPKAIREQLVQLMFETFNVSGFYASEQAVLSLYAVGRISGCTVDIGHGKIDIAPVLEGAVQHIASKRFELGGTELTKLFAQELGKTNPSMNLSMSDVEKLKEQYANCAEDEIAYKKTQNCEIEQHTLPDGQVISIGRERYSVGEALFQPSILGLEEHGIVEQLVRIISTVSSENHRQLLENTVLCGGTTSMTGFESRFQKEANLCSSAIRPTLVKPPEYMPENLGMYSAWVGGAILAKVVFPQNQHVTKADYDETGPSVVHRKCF

[7] = molecular target: acyl-(acyl-carrier-protein) desaturase (AT1G43800) (Arabidopsis thaliana); test: TAP-MS, N-terminal GS tag
[8] = molecular target: chromatin remodeling protein (SYD) (Arabidopsis thaliana); test: TAP-MS, N-terminal GS tag
[9] = molecular target: expressed protein, similar to DAG protein (AT3G15000) (Arabidopsis thaliana); test: TAP-MS, N-terminal GS tag
[10] = molecular target: importin alpha-2 (IMPA2) (Arabidopsis thaliana); test: TAP-MS, N-terminal GS tag
[11] = molecular target: DNA-binding bromodomain-containing protein (AT1G20670) (Arabidopsis thaliana); test: TAP-MS, C-terminal GS tag
[12] = molecular target: DNA-binding bromodomain-containing protein, similar to At1g20670 (AT1G76380) (Arabidopsis thaliana); test: TAP-MS, C-terminal GS tag
[13] = molecular target: T4, GLX1 (GLYOXALASE I HOMOLOG) (Arabidopsis thaliana); test: TAP-MS, C-terminal GS tag
T4 sequence (O65398 2-283, looked up): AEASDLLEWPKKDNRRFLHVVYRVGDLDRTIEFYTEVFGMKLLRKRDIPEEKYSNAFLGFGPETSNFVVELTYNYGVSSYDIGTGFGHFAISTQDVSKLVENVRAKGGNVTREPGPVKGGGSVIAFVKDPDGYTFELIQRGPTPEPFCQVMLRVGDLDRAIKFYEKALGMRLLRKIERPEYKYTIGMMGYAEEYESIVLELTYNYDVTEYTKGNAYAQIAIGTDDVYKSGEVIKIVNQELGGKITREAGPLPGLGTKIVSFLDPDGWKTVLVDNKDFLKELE

[14] = molecular target: OASA1 (O-… (THIOL) LYASE (OAS-TL) ISOFORM A1) (Arabidopsis thaliana); test: TAP-MS, C-terminal GS tag
[15] = molecular target: SNF2 protein (BRM) (Arabidopsis thaliana); test: TAP-MS, C-terminal GS tag
[16] = molecular target: SWIB complex BAF60b domain-containing protein (Swp73B) (Arabidopsis thaliana); test: TAP-MS, C-terminal GS tag
[17] = molecular target: Swp73A (Arabidopsis thaliana); test: TAP-MS, C-terminal GS tag
[18] = molecular target: T5, actin-related protein 4 (ARP4) (Arabidopsis thaliana); test: TAP-MS, C-terminal GS tag
T5 sequence (Q84M92 1-441, looked up): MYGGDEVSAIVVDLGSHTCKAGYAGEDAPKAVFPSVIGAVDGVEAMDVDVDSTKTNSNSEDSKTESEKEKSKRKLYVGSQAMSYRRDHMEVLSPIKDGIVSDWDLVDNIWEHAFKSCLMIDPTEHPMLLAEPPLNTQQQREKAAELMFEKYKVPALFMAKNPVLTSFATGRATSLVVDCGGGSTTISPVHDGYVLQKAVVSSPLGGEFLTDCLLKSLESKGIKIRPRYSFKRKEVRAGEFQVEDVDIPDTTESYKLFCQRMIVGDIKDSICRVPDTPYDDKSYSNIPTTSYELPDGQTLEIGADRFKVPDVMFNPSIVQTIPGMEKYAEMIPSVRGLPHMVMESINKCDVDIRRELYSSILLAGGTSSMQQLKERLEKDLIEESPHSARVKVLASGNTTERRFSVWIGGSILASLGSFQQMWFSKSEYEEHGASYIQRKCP

[19] = molecular target: T3, actin-related protein 7 (ARP7) (Arabidopsis thaliana); test: TAP-MS, C-terminal GS tag
[20] = molecular target: expressed protein, similar to At3g03460 (AT5G17510) (Arabidopsis thaliana); test: TAP-MS, C-terminal GS tag
[21] = molecular target: expressed protein, similar to At4g22320 (AT5G55210) (Arabidopsis thaliana); test: TAP-MS, C-terminal GS tag
[22] = molecular target: unknown, similar to At5g55210 (AT4G22320) (Arabidopsis thaliana); test: TAP-MS, C-terminal GS tag
[23] = molecular target: CPK23 (calcium-dependent protein kinase 23) (Arabidopsis thaliana); test: TAP-MS, N-terminal GS tag
[24] = molecular target: DNA-binding bromodomain-containing protein (AT1G20670) (Arabidopsis thaliana); test: TAP-MS, N-terminal GS tag
[25] = molecular target: DNA-binding bromodomain-containing protein, similar to At1g20670 (AT1G76380) (Arabidopsis thaliana); test: TAP-MS, N-terminal GS tag
[26] = molecular target: SWIB complex BAF60b domain-containing protein (Swp73B) (Arabidopsis thaliana); test: TAP-MS, N-terminal GS tag
[27] = molecular target: Swp73A (Arabidopsis thaliana); test: TAP-MS, N-terminal GS tag
[28] = molecular target: T5, actin-related protein 4 (ARP4) (Arabidopsis thaliana); test: TAP-MS, N-terminal GS tag
[29] = molecular target: expressed protein, similar to At3g03460 (AT5G17510) (Arabidopsis thaliana); test: TAP-MS, N-terminal GS tag
[30] = molecular target: expressed protein, similar to At4g22320 (AT5G55210) (Arabidopsis thaliana); test: TAP-MS, N-terminal GS tag
[31] = molecular target: unknown protein, similar to At5g17510 (AT3G03460) (Arabidopsis thaliana); test: TAP-MS, N-terminal GS tag
[32] = molecular target: AAC1 (ADP/ATP CARRIER 1) (Arabidopsis thaliana); test: TAP-MS, C-terminal GS tag
[33] = molecular target: HIS4 (Arabidopsis thaliana); test: TAP-MS, C-terminal GS tag

B1: GS-AN3 (protein, UniProt Q8L8A5 1-210, looked up)
GRF1-interacting factor 1: MQQHLMQMQPMMAGYYPSNVTSDHIQQYLDENKSLILKIVESQNSGKLSECAENQARLQRNLMYLAAIADSQPQPPSVHSQYGSAGGGMIQGEGGSHYLQQQQATQQQQMTQQSLMAARSSMLYAQQQQQQQPYATLQHQQLHHSQLGMSSSSGGGGSSGLHILQGEAGGFHDFGRGKPEMGSGGGGEGRGGSSGDGGETLYLKSSDDGN
modifications: N-terminal GS tag
N-GS (times co-purified) [1]: 2 | N-GS (times co-purified) [2]: 2 | N-GS (times co-purified) [3]: 1 | N-GS (times co-purified) [4]: 1 | N-GS (times co-purified) [5]: 2 | N-GS (times co-purified) [6]: 3 | N-GS (times co-purified) [7]: 1 | N-GS (times co-purified) [8]: 4 | N-GS (times co-purified) [9]: 3 | N-GS (times co-purified) [10]: 1

B3: GS-SWI3C (protein, UniProt Q9XI07 1-807, looked up)
SWI/SNF complex subunit SWI3C: MPASEDRRGKWKRKKRGGLSAARKPKQEEEDMEEEDEENNNNNNEEMDDVENADELQQNGGATPDPGLGIGEVVEDSGSRISDFPAVVKRVVIRPHASVMAVVAAERAGLIGETRGQGSLPALENISFGQLQALSTVPADSLDLERSDGSSSAYVISPPPIMDGEGVVKRFGDLVHVLPMHSDWFAPNTVDRLERQVVPQFFSGKSPNHTPESYMEFRNAIVSKYVENPEKTLTISDCQGLVDGVDIEDFARVFRFLDHWGIINYCATAQSHPGPLRDVSDVREDTNGEVNVPSAALTSIDSLIKFDKPNCRHKGGEVYSSLPSLDGDSPDLDIRIREHLCDSHCNHCSRPLPTVYFQSQKKGDILLCCDCFHHGRFVVGHSCLDFVRVDPMKFYGDQDGDNWTDQETLLLLEAVELYNENWVQIADHVGSKSKAQCILHFLRLPVEDGLLDNVEVSGVTNTENPTNGYDHKGTDSNGDLPGYSEQGSDTEIKLPFVKSPNPVMALVAFLASAVGPRVAASCAHESLSVLSEDDRMKSEGMQGKEASLLDGENQQQDGAHKTSSQNGAEAQTPLPQDKVMAAFRAGLSAAATKAKLFADHEEREIQRLSANIVNHQLKRMELKLKQFAEIETLLMKECEQVEKTRQRFSAERARMLSARFGSPGGISPQTNNLQGMSLSTGGNNINSLMHQQHQQQQASATSQPSIIPGFSNNPQVQAQMHFMARQQQQQQQQQQQQQQAFSFGPRLPLNAIQTNAGSTASPNVMFGNNQLNNPAAAGAASINQPSFSHPMVRSSTGSGSGSGLGLN
modifications: N-terminal GS tag
N-GS (times co-purified) [23]: 1 | N-GS (times co-purified) [24]: 3 | N-GS (times co-purified) [25]: 2 | N-GS (times co-purified) [5]: 3 | N-GS (times co-purified) [26]: 3 | N-GS (times co-purified) [27]: 3 | N-GS (times co-purified) [28]: 3 | N-GS (times co-purified) [6]: 3 | N-GS (times co-purified) [29]: 3 | N-GS (times co-purified) [30]: 2 | N-GS (times co-purified) [31]: 1

Further lines, results first:

C-GS (times co-purified) [11]: 2 | C-GS (times co-purified) [12]: 2 | C-GS (times co-purified) [13]: 1 | C-GS (times co-purified) [14]: 1 | C-GS (times co-purified) [15]: 2 | C-GS (times co-purified) [16]: 2 | C-GS (times co-purified) [17]: 2 | C-GS (times co-purified) [18]: 2 | C-GS (times co-purified) [19]: 2 | C-GS (times co-purified) [20]: 2 | C-GS (times co-purified) [21]: 2 | C-GS (times co-purified) [22]: 1
B2: SWI3C-GS (protein, UniProt Q9XI07 1-807, looked up)
SWI/SNF complex subunit SWI3C: B3 SWI/SNF complex subunit SWI3C
modifications: C-terminal GS tag

C-GS (times co-purified) [32]: 1 | C-GS (times co-purified) [33]: 1 | C-GS (times co-purified) [14]: 1 | C-GS (times co-purified) [21]: 2 | C-GS (times co-purified) [22]: 2
B4: ARP7-GS (protein, UniProt Q8L4Y5 1-363, looked up)
Actin-related protein 7: T3 sequence (Q8L4Y5 1-363, looked up)
modifications: C-terminal GS tag
